Data reported in article PMC8214912.
Like-named read-outs stand apart in the source and are kept apart here.

Assays:
Assay in all cases: NMR titration
[1] = molecular target: T1, N 1-209 (nucleocapsid N-terminal region: N-terminal flank, NTD and SR region) (SARS-CoV-2, UniProt P0DTC9 1-209)
[2] = molecular target: T1, N 1-209 (nucleocapsid N-terminal …); remark: listed apart in the source
[3] = molecular target: T1, N 1-209 (nucleocapsid N-terminal …); remark: listed apart in the source

| Binder | Kd [2] | Kd [3] | other results |
| --- | --- | --- | --- |
| GUGUGUGCCUGU (ssRNA) [GU 12-mer] | – | – | Kd [1]: 6 ± 2 µM |
| TAATAAC (ssDNA) | 110 ± 8 µM | – | – |
| GGUGGGAGCCUCUUUUAUGGGGUGACUGCC (structured_RNA) [H25 30-mer] | 19.9 ± 4.7 µM | – | – |
| UAAUAAC (mixed, 2'-deoxy at terminal nucleotides 1 (dU) and 7 (dC); remainder RNA) [dUAAUAAdC] | – | 138 ± 12 µM | – |
| AAUAA (ssRNA) | – | 189 ± 22 µM | – |
